In patent publication US9993529B2, “Stable formulations of a hyaluronan-degrading enzyme” (Halozyme, Inc., priority 2011, dated 2018):

Assay: RP-HPLC insulin apparent solubility / percent recovery (content)
Settings: for Solubility of Lispro: 7 days at 2-8° C.
Method: Apparent solubility was measured as the percent insulin recovery as compared to the initial formulations/conditions.
Samples were prepared by withdrawing 100 μL from each vial at every time point and centrifuging prior to loading. Samples were stored in an autosampler at 4° C. prior to use, and were considered stable for 3 days after preparation. All samples were tested in duplicate.
For insulin, 20 μL was injected for each HPLC run.
To determine the apparent solubility, the peak area of insulin/insulin analog main peak and desamido peak were integrated and combined together to calculate the percentage relative to the standards. […] The data were processed using Design-Expert® 7.0 (StatEase) and the “historical data” feature. Insulin percent purity was expressed as the percent of main insulin versus all insulin species.

insulin Lispro: LysB28, ProB29 human insulin analog
Solubility of Lispro (0.2% methylparaben + […] m-cresol, pH 6.6, NaCl 50 mM): 42.0%
Solubility of Lispro (0.2% methylparaben + […] m-cresol, pH 6.6, NaCl 80 mM): 28.2%
Solubility of Lispro (0.2% methylparaben + […] m-cresol, pH 6.6, NaCl 110 mM): 24.1%
Solubility of Lispro (0.2% methylparaben + […] m-cresol, pH 6.6, NaCl 140 mM): 25.9%
Solubility of Lispro (0.2% methylparaben + […] m-cresol, pH 6.8, NaCl 50 mM): 82.3%
Solubility of Lispro (0.2% methylparaben + […] m-cresol, pH 6.8, NaCl 80 mM): 62.6%
Solubility of Lispro (0.2% methylparaben + […] m-cresol, pH 6.8, NaCl 110 mM): 47.8%
Solubility of Lispro (0.2% methylparaben + […] m-cresol, pH 6.8, NaCl 140 mM): 42.0%
Solubility of Lispro (0.2% methylparaben + […] m-cresol, pH 7.0, NaCl 50 mM): 95.3%
Solubility of Lispro (0.2% methylparaben + […] m-cresol, pH 7.0, NaCl 80 mM): 98.1%
Solubility of Lispro (0.2% methylparaben + […] m-cresol, pH 7.0, NaCl 110 mM): 94.1%
Solubility of Lispro (0.2% methylparaben + […] m-cresol, pH 7.0, NaCl 140 mM): 65.6%
Solubility of Lispro (0.2% methylparaben + […] m-cresol, pH 7.2, NaCl 50 mM): 95.7%
Solubility of Lispro (0.2% methylparaben + […] m-cresol, pH 7.2, NaCl 80 mM): 97.9%
Solubility of Lispro (0.2% methylparaben + […] m-cresol, pH 7.2, NaCl 110 mM): 99.6%
Solubility of Lispro (0.2% methylparaben + […] m-cresol, pH 7.2, NaCl 140 mM): 98.0%
Solubility of Lispro (0.2% methylparaben + […] m-cresol, pH 7.4, NaCl 50 mM): 95.6%
Solubility of Lispro (0.2% methylparaben + […] m-cresol, pH 7.4, NaCl 80 mM): 98.2%
Solubility of Lispro (0.2% methylparaben + […] m-cresol, pH 7.4, NaCl 110 mM): 99.9%
Solubility of Lispro (0.2% methylparaben + […] m-cresol, pH 7.4, NaCl 140 mM): 98.5%
Solubility of Lispro (0.2% methylparaben + […] m-cresol, pH 7.6, NaCl 50 mM): 95.7%
Solubility of Lispro (0.2% methylparaben + […] m-cresol, pH 7.6, NaCl 80 mM): 98.3%
Solubility of Lispro (0.2% methylparaben + […] m-cresol, pH 7.6, NaCl 110 mM): 100.2%
Solubility of Lispro (0.2% methylparaben + […] m-cresol, pH 7.6, NaCl 140 mM): 98.8%
Solubility of Lispro (0.2% phenol + […] m-cresol, pH 6.6, NaCl 50 mM): 52.8%
Solubility of Lispro (0.2% phenol + […] m-cresol, pH 6.6, NaCl 80 mM): 32.8%
Solubility of Lispro (0.2% phenol + […] m-cresol, pH 6.6, NaCl 110 mM): 26.0%
Solubility of Lispro (0.2% phenol + […] m-cresol, pH 6.8, NaCl 50 mM): 91.4%
Solubility of Lispro (0.2% phenol + […] m-cresol, pH 6.8, NaCl 80 mM): 65.1%
Solubility of Lispro (0.2% phenol + […] m-cresol, pH 6.8, NaCl 110 mM): 44.9%
Solubility of Lispro (0.2% phenol + […] m-cresol, pH 6.8, NaCl 140 mM): 40.4%
Solubility of Lispro (0.2% phenol + […] m-cresol, pH 7.0, NaCl 50 mM): 97.4%
Solubility of Lispro (0.2% phenol + […] m-cresol, pH 7.0, NaCl 80 mM): 95.5%
Solubility of Lispro (0.2% phenol + […] m-cresol, pH 7.0, NaCl 110 mM): 75.2%
Solubility of Lispro (0.2% phenol + […] m-cresol, pH 7.0, NaCl 140 mM): 65.3%
Solubility of Lispro (0.2% phenol + […] m-cresol, pH 7.2, NaCl 50 mM): 97.6%
Solubility of Lispro (0.2% phenol + […] m-cresol, pH 7.2, NaCl 80 mM): 97.4%
Solubility of Lispro (0.2% phenol + […] m-cresol, pH 7.2, NaCl 110 mM): 95.2%
Solubility of Lispro (0.2% phenol + […] m-cresol, pH 7.2, NaCl 140 mM): 90.8%
Solubility of Lispro (0.2% phenol + […] m-cresol, pH 7.4, NaCl 50 mM): 97.7%
Solubility of Lispro (0.2% phenol + […] m-cresol, pH 7.4, NaCl 80 mM): 97.6%
Solubility of Lispro (0.2% phenol + […] m-cresol, pH 7.4, NaCl 110 mM): 97.0%
Solubility of Lispro (0.2% phenol + […] m-cresol, pH 7.4, NaCl 140 mM): 96.9%
Solubility of Lispro (0.2% phenol + […] m-cresol, pH 7.6, NaCl 50 mM): 97.5%
Solubility of Lispro (0.2% phenol + […] m-cresol, pH 7.6, NaCl 80 mM): 97.7%
Solubility of Lispro (0.2% phenol + […] m-cresol, pH 7.6, NaCl 110 mM): 97.3%
Solubility of Lispro (0.2% phenol + […] m-cresol, pH 7.6, NaCl 140 mM): 96.8%
Solubility (% of 120 U/mL) (2-8° C., pH 7.0, after 1 week at 80, 110 or 140 mM NaCl): below 65%
Solubility of Lispro ([…] phenol + […] m-cresol, pH 6.6, NaCl 50 mM): 60.3%
Solubility of Lispro ([…] phenol + […] m-cresol, pH 6.6, NaCl 80 mM): 43.3%
Solubility of Lispro ([…] phenol + […] m-cresol, pH 6.6, NaCl 110 mM): 24.2%
Solubility of Lispro ([…] phenol + […] m-cresol, pH 6.6, NaCl 140 mM): 27.7%
Solubility of Lispro ([…] phenol + […] m-cresol, pH 6.8, NaCl 50 mM): 93.6%
Solubility of Lispro ([…] phenol + […] m-cresol, pH 6.8, NaCl 80 mM): 60.8%
Solubility of Lispro ([…] phenol + […] m-cresol, pH 6.8, NaCl 110 mM): 44.9%
Solubility of Lispro ([…] phenol + […] m-cresol, pH 6.8, NaCl 140 mM): 35.9%
Solubility of Lispro ([…] phenol + […] m-cresol, pH 7.0, NaCl 50 mM): 98.7%
Solubility of Lispro ([…] phenol + […] m-cresol, pH 7.0, NaCl 80 mM): 96.4%
Solubility of Lispro ([…] phenol + […] m-cresol, pH 7.0, NaCl 110 mM): 77.0%
Solubility of Lispro ([…] phenol + […] m-cresol, pH 7.0, NaCl 140 mM): 61.2%
Solubility of Lispro ([…] phenol + […] m-cresol, pH 7.2, NaCl 50 mM): 100.5%
Solubility of Lispro ([…] phenol + […] m-cresol, pH 7.2, NaCl 80 mM): 99.2%
Solubility of Lispro ([…] phenol + […] m-cresol, pH 7.2, NaCl 110 mM): 97.3%
Solubility of Lispro ([…] phenol + […] m-cresol, pH 7.2, NaCl 140 mM): 93.1%
Solubility of Lispro ([…] phenol + […] m-cresol, pH 7.4, NaCl 50 mM): 100.8%
Solubility of Lispro ([…] phenol + […] m-cresol, pH 7.4, NaCl 80 mM): 101.8%
Solubility of Lispro ([…] phenol + […] m-cresol, pH 7.4, NaCl 110 mM): 100.7%
Solubility of Lispro ([…] phenol + […] m-cresol, pH 7.4, NaCl 140 mM): 98.4%
Solubility of Lispro ([…] phenol + […] m-cresol, pH 7.6, NaCl 50 mM): 100.9%
Solubility of Lispro ([…] phenol + […] m-cresol, pH 7.6, NaCl 80 mM): 102.1%
Solubility of Lispro ([…] phenol + […] m-cresol, pH 7.6, NaCl 110 mM): 101.6%
Solubility of Lispro ([…] phenol + […] m-cresol, pH 7.6, NaCl 140 mM): 101.3%
